In publication PMC6555819, “Comprehensive study of nuclear receptor DNA binding provides a revised framework for understanding receptor specificity”:

B1: NRC3_random_hg19_232_o1 (dsDNA)
DNA 1: GCTTAGCAGGAACTGAGAAGTCACACTCAAGAGTTAGCGATTGACAGCGTAGAATGAAGG
DNA 2: CCTTCATTCTACGCTGTCAATCGCTAACTCTTGAGTGTGACTTCTCAGTTCCTGCTAAGC
B2: NRC3_wobSeed67_DR2_o1 (dsDNA)
DNA 1: GCCCAGACAGGTGAGAAGGTAACTCAGCCTCGATTAGCGATTGACAGCGTAGAATGAAGG
DNA 2: CCTTCATTCTACGCTGTCAATCGCTAATCGAGGCTGAGTTACCTTCTCACCTGTCTGGGC
B3: NRC3_wobSeed138_DR5_A14G_o1 (dsDNA)
DNA 1: GCGATACAGGGTCGGCTAGAGGCCAGAGTATGGAAAGCGATTGACAGCGTAGAATGAAGG
DNA 2: CCTTCATTCTACGCTGTCAATCGCTTTCCATACTCTGGCCTCTAGCCGACCCTGTATCGC
B4: NRC3_wobSeed21_DR0_T12C_o1 (dsDNA)
DNA 1: GCCGTCAAAGTCCAAGGTAACGTAACAGAAAGCAGCGCGATTGACAGCGTAGAATGAAGG
DNA 2: CCTTCATTCTACGCTGTCAATCGCGCTGCTTTCTGTTACGTTACCTTGGACTTTGACGGC
B5: NRC3_wobSeed21_DR0_T11A_o1 (dsDNA)
DNA 1: GCCGTCAAAGATCAAGGTAACGTAACAGAAAGCAGCGCGATTGACAGCGTAGAATGAAGG
DNA 2: CCTTCATTCTACGCTGTCAATCGCGCTGCTTTCTGTTACGTTACCTTGATCTTTGACGGC
B6: NRC3_random_hg19_345_o1 (dsDNA)
DNA 1: GCGCAGTGGGTGATGATGTCACTGGTTAACGTGGCTGCGATTGACAGCGTAGAATGAAGG
DNA 2: CCTTCATTCTACGCTGTCAATCGCAGCCACGTTAACCAGTGACATCATCACCCACTGCGC
B7: NRC3_random_hg19_488_o1 (dsDNA)
DNA 1: GCGGTTGCAGTGAGCTGAGATCACACCACTGCACTCGCGATTGACAGCGTAGAATGAAGG
DNA 2: CCTTCATTCTACGCTGTCAATCGCGAGTGCAGTGGTGTGATCTCAGCTCACTGCAACCGC
B8: NRC3_wobSeed122_DR5_G21T_o1 (dsDNA)
DNA 1: GCGCTAGTTGGTCAGTAAAATGTCACACACCGGTCGGCGATTGACAGCGTAGAATGAAGG
DNA 2: CCTTCATTCTACGCTGTCAATCGCCGACCGGTGTGTGACATTTTACTGACCAACTAGCGC
B9: NRC3_wobSeed63_DR2_A14G_o1 (dsDNA)
DNA 1: GCCGAACTAGGTCGCCAGGACAGTGAAGAGGTTGGAGCGATTGACAGCGTAGAATGAAGG
DNA 2: CCTTCATTCTACGCTGTCAATCGCTCCAACCTCTTCACTGTCCTGGCGACCTAGTTCGGC
B10: NRC3_random_hg19_316_o1 (dsDNA)
DNA 1: GCCAAAGACAGCTTTGCAAGGCCACTTCTGTTTGCTGCGATTGACAGCGTAGAATGAAGG
DNA 2: CCTTCATTCTACGCTGTCAATCGCAGCAAACAGAAGTGGCCTTGCAAAGCTGTCTTTGGC
B11: NRC3_random_hg19_395_o1 (dsDNA)
DNA 1: GCGTACAATTGCCCTCTTAGCAGAGTTCTGGTGCATGCGATTGACAGCGTAGAATGAAGG
DNA 2: CCTTCATTCTACGCTGTCAATCGCATGCACCAGAACTCTGCTAAGAGGGCAATTGTACGC
B12: NRC3_random_hg19_361_o1 (dsDNA)
DNA 1: GCAAACTGGGAGGTGGAGGTTGTAGTAAGCCAAGATGCGATTGACAGCGTAGAATGAAGG
DNA 2: CCTTCATTCTACGCTGTCAATCGCATCTTGGCTTACTACAACCTCCACCTCCCAGTTTGC
B13: NRC3_wobSeed136_DR5_T12G_o1 (dsDNA)
DNA 1: GCTAGCCTAGGGCATTCAGGGGCCAGTATAGAAAGCGCGATTGACAGCGTAGAATGAAGG
DNA 2: CCTTCATTCTACGCTGTCAATCGCGCTTTCTATACTGGCCCCTGAATGCCCTAGGCTAGC
B14: NRC3_random_hg19_295_o1 (dsDNA)
DNA 1: GCGAGGTTGCAGAGATGTTCTCACTAAACATTCGTTGCGATTGACAGCGTAGAATGAAGG
DNA 2: CCTTCATTCTACGCTGTCAATCGCAACGAATGTTTAGTGAGAACATCTCTGCAACCTCGC
B15: NRC3_wobSeed66_DR2_C13A_o1 (dsDNA)
DNA 1: GCAATACAGGGTAACTAGGCCAGAGTAGGTACGAATGCGATTGACAGCGTAGAATGAAGG
DNA 2: CCTTCATTCTACGCTGTCAATCGCATTCGTACCTACTCTGGCCTAGTTACCCTGTATTGC
B16: NRC3_random_hg19_245_o1 (dsDNA)
DNA 1: GCATGTTCCTTTACCCTAGCTGCAGTGGGTATCCACGCGATTGACAGCGTAGAATGAAGG
DNA 2: CCTTCATTCTACGCTGTCAATCGCGTGGATACCCACTGCAGCTAGGGTAAAGGAACATGC
B17: NRC3_wobSeed101_DR4_A14C_o1 (dsDNA)
DNA 1: GCCCTTACGGGTCCCTCCAGGTTATAGCATCGGAGTGCGATTGACAGCGTAGAATGAAGG
DNA 2: CCTTCATTCTACGCTGTCAATCGCACTCCGATGCTATAACCTGGAGGGACCCGTAAGGGC
B18: NRC3_wobSeed59_DR2_o1 (dsDNA)
DNA 1: GCTCTATTAGTTGATTAGGGCAACCGAAACAGCGGAGCGATTGACAGCGTAGAATGAAGG
DNA 2: CCTTCATTCTACGCTGTCAATCGCTCCGCTGTTTCGGTTGCCCTAATCAACTAATAGAGC
B19: NRC3_wobSeed90_DR3_A14G_o1 (dsDNA)
DNA 1: GCCATACAGGGTCGGCTAGGCCAGAGTAGGGACGGCGCGATTGACAGCGTAGAATGAAGG
DNA 2: CCTTCATTCTACGCTGTCAATCGCGCCGTCCCTACTCTGGCCTAGCCGACCCTGTATGGC
B20: NRC3_random_hg19_475_o1 (dsDNA)
DNA 1: GCATGAAAGTTTAGTATGTGTAGGGTAGTGCTTCATGCGATTGACAGCGTAGAATGAAGG
DNA 2: CCTTCATTCTACGCTGTCAATCGCATGAAGCACTACCCTACACATACTAAACTTTCATGC
B21: NRC3_random_hg19_148_o1 (dsDNA)
DNA 1: GCTGTGTCACCATGAGCAATCCAACCAGGCATCCCAGCGATTGACAGCGTAGAATGAAGG
DNA 2: CCTTCATTCTACGCTGTCAATCGCTGGGATGCCTGGTTGGATTGCTCATGGTGACACAGC
B22: NRC3_wobSeed39_DR1_A14T_o1 (dsDNA)
DNA 1: GCCGAACTAGGTCTAAGGACAGTGAAAGGCGACGTAGCGATTGACAGCGTAGAATGAAGG
DNA 2: CCTTCATTCTACGCTGTCAATCGCTACGTCGCCTTTCACTGTCCTTAGACCTAGTTCGGC
B23: NRC3_wobSeed141_DR5_G10C_o1 (dsDNA)
DNA 1: GCAGTCAAACTTCAGGACGAGGTAACGTAAAGCACGGCGATTGACAGCGTAGAATGAAGG
DNA 2: CCTTCATTCTACGCTGTCAATCGCCGTGCTTTACGTTACCTCGTCCTGAAGTTTGACTGC
B24: NRC3_wobSeed93_DR3_C13T_o1 (dsDNA)
DNA 1: GCAGTCAAAGTTTATCTAGGTAACGTAAGATATGCTGCGATTGACAGCGTAGAATGAAGG
DNA 2: CCTTCATTCTACGCTGTCAATCGCAGCATATCTTACGTTACCTAGATAAACTTTGACTGC
B25: NRC3_wobSeed93_DR3_T12G_o1 (dsDNA)
DNA 1: GCAGTCAAAGTGCATCTAGGTAACGTAAGATATGCTGCGATTGACAGCGTAGAATGAAGG
DNA 2: CCTTCATTCTACGCTGTCAATCGCAGCATATCTTACGTTACCTAGATGCACTTTGACTGC
B26: NRC3_random_hg19_137_o1 (dsDNA)
DNA 1: GCCTCACGTGTTTCCTGGTAGAAATGCAGAGTACAAGCGATTGACAGCGTAGAATGAAGG
DNA 2: CCTTCATTCTACGCTGTCAATCGCTTGTACTCTGCATTTCTACCAGGAAACACGTGAGGC
B27: NRC3_wobSeed88_DR3_G10A_o1 (dsDNA)
DNA 1: GCTAGCCTAAGTCATGCGGGCCAGTATAGTGTCGGCGCGATTGACAGCGTAGAATGAAGG
DNA 2: CCTTCATTCTACGCTGTCAATCGCGCCGACACTATACTGGCCCGCATGACTTAGGCTAGC
B28: NRC3_wobSeed87_DR3_A14G_o1 (dsDNA)
DNA 1: GCCGAACTAGGTCGTCCAGGACAGTGAATACATTGAGCGATTGACAGCGTAGAATGAAGG
DNA 2: CCTTCATTCTACGCTGTCAATCGCTCAATGTATTCACTGTCCTGGACGACCTAGTTCGGC
B29: NRC3_wobSeed87_DR3_G10C_o1 (dsDNA)
DNA 1: GCCGAACTACGTCATCCAGGACAGTGAATACATTGAGCGATTGACAGCGTAGAATGAAGG
DNA 2: CCTTCATTCTACGCTGTCAATCGCTCAATGTATTCACTGTCCTGGATGACGTAGTTCGGC
B30: NRC3_random_hg19_15_o1 (dsDNA)
DNA 1: GCGTTGGTCAGCTGGTCTCGAACTCCTGACCTCAAGGCGATTGACAGCGTAGAATGAAGG
DNA 2: CCTTCATTCTACGCTGTCAATCGCCTTGAGGTCAGGAGTTCGAGACCAGCTGACCAACGC
B31: NRC3_wobSeed15_DR0_A14G_o1 (dsDNA)
DNA 1: GCCGAACTAGGTCGAGGACAGTGAATCTCCGCACGCGCGATTGACAGCGTAGAATGAAGG
DNA 2: CCTTCATTCTACGCTGTCAATCGCGCGTGCGGAGATTCACTGTCCTCGACCTAGTTCGGC
B32: NRC3_random_hg19_210_o1 (dsDNA)
DNA 1: GCATCATTTGCTCTGGGTGAAGCCAGCTACCATGTTGCGATTGACAGCGTAGAATGAAGG
DNA 2: CCTTCATTCTACGCTGTCAATCGCAACATGGTAGCTGGCTTCACCCAGAGCAAATGATGC
B33: NRC3_wobSeed41_DR1_G17C_o1 (dsDNA)
DNA 1: GCATATGTAGGTTAAGCGTCATTCAGGTTGGTTCGCGCGATTGACAGCGTAGAATGAAGG
DNA 2: CCTTCATTCTACGCTGTCAATCGCGCGAACCAACCTGAATGACGCTTAACCTACATATGC

Target: FXR:RXRa (Homo sapiens, UniProt Q96RI1;P19793 full;full)
Sequence (Q96RI1 whole entry, chain 1 of 2): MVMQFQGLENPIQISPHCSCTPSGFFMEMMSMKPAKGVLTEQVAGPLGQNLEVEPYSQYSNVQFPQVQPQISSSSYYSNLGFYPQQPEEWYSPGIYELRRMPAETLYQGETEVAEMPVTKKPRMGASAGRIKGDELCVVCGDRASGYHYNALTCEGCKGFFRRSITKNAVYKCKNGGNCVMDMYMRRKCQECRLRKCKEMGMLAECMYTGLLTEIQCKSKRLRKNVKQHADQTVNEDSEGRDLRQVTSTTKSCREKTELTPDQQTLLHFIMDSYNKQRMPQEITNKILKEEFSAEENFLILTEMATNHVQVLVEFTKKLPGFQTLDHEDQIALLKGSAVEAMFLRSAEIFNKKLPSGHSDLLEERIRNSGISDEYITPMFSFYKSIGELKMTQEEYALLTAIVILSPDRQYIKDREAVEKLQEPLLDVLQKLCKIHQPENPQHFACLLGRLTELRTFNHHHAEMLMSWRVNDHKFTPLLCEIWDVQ
Sequence (P19793 whole entry, chain 2 of 2): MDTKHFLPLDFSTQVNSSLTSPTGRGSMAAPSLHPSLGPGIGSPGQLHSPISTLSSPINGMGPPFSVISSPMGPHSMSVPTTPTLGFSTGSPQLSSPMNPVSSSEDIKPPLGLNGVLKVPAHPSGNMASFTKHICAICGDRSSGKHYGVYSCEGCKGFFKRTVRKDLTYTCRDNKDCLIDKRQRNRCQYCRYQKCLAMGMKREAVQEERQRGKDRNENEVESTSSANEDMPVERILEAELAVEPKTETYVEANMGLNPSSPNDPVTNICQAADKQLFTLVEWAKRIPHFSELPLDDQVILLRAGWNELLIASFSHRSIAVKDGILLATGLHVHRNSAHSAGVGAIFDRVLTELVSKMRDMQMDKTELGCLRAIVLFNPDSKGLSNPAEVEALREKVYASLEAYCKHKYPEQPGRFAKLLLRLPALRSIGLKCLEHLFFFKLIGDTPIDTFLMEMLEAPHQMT
Assay: no ligand; PBM; 270 nM : 90 nM RXRa; PBS pH 7.4, 2% milk, 0.02% Triton X-100, 1 mM DTT, BSA, 0.4 mg/ml salmon testes DNA
Settings: tags: His kept;His cleaved; copies: 1;1; label: surface-attached array probe
Summary of the method: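 For binding z-scores, the reference was random background probes on custom Agilent 4×180K protein-binding microarrays. These arrays were incubated 1 h with ligand-free nuclear receptor dimers in PBS pH 7.4, 2% milk, 0.02% Triton X-100, 1 mM DTT, 0.2 mg/mL BSA and 0.4 mg/ml salmon testes DNA. Fluorescence was scanned after antibody detection of each partner (one per run) and regression-normalized.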

Point of comparison: B7, binding signal -0.28 PBM z-score against 500 random probes. Against it:
- B1 — lower, -0.34 PBM z-score against 500 random probes
- B2 — higher, 0.47 PBM z-score against 500 random probes
- B3 — higher, 0.37 PBM z-score against 500 random probes
- B4 — higher, 0.2 PBM z-score against 500 random probes
- B5 — higher, 0.1 PBM z-score against 500 random probes
- B6 — lower, -0.31 PBM z-score against 500 random probes
- B8 — higher, 0.1 PBM z-score against 500 random probes
- B9 — higher, 0.16 PBM z-score against 500 random probes
- B10 — higher, -0.15 PBM z-score against 500 random probes
- B11 — higher, 0.09 PBM z-score against 500 random probes
- B12 — higher, 0.3 PBM z-score against 500 random probes
- B13 — higher, -0.08 PBM z-score against 500 random probes
- B14 — higher, 0.03 PBM z-score against 500 random probes
- B15 — higher, -0.01 PBM z-score against 500 random probes
- B16 — higher, 0.41 PBM z-score against 500 random probes
- B17 — higher, 0.32 PBM z-score against 500 random probes
- B18 — higher, 0.48 PBM z-score against 500 random probes
- B19 — higher, 0.13 PBM z-score against 500 random probes
- B20 — higher, 0.26 PBM z-score against 500 random probes
- B21 — higher, -0.04 PBM z-score against 500 random probes
- B22 — higher, 0.18 PBM z-score against 500 random probes
- B23 — higher, 0.23 PBM z-score against 500 random probes
- B24 — higher, 0.4 PBM z-score against 500 random probes
- B25 — higher, 0.12 PBM z-score against 500 random probes
- B26 — higher, 0.08 PBM z-score against 500 random probes
- B27 — lower, -0.37 PBM z-score against 500 random probes
- B28 — higher, 0.36 PBM z-score against 500 random probes
- B29 — higher, 0.27 PBM z-score against 500 random probes
- B30 — higher, 0.16 PBM z-score against 500 random probes
- B31 — higher, 0.21 PBM z-score against 500 random probes
- B32 — higher, -0.02 PBM z-score against 500 random probes
- B33 — higher, 0.45 PBM z-score against 500 random probes
